Test results published in US20110129470A1.

Molecular target: CD33 (cell surface antigen on HL60 and NB4 cells) (UniProt P20138)
Test: cell-based or functional assay

Sequence of CD33 (cell surface antigen on HL60 and NB4 cells) (P20138 18-364 limits assumed): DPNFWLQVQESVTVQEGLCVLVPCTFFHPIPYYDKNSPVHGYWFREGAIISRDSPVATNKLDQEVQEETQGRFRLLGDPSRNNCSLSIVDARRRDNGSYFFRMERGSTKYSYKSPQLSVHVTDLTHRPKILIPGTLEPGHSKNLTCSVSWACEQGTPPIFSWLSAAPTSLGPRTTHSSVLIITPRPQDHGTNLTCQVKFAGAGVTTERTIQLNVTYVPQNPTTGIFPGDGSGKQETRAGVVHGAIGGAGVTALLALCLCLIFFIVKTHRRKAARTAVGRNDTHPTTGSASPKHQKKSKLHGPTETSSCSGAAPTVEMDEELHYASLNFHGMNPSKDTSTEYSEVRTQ
Sequence of HuM195-dCK conjugate (wild type dCK chemically conjugated to the humanized anti-CD33 monoclonal antibody HuM195) (B2R8V6 whole entry): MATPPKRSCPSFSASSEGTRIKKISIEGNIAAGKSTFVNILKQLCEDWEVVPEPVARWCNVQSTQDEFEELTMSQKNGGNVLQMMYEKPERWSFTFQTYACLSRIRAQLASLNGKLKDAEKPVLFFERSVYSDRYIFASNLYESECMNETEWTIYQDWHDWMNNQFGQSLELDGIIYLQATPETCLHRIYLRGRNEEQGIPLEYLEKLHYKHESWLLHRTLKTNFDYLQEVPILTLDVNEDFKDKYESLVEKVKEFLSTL

“HuM195-dCK conjugate (wild type dCK chemically conjugated to the humanized anti-CD33 monoclonal antibody HuM195)” showed an additional cell killing over AraC alone (Annexin V and propidium iodide apoptosis assay), HL60 cells of 20%, a cell death (Annexin V and propidium iodide apoptosis assay), HL60 cells, conjugate in combination with AraC 1 µM of 70% and a cell killing (apoptosis assay), NB4 cells, conjugate with AraC 250 nM of 65%.
